These are literature values, as cited in publication PMC12326988, “Synthetic host defense peptide inhibits SARS-CoV-2 replication in vitro” (Antimicrobial Agents and Chemotherapy, 2025).

The data set deals with binding of the SARS-CoV-2 RBD to its human ACE2 receptor.

B1: HD5 (peptide, UniProt Q01523 20-94, looked up)
Defensin alpha 5: ESLQERADEATTQKQSGEDNQDLAISFAGNGLSALRTSGSQARATCYCRTGRCATRESLSGVCEISGRLYRLCCR
modifications: Defensin-5
Consider B1, for which the “affinity, interference with binding of SARS-CoV-2 RBD to human ACE2” value is reported as 76.2 nM.
